Results as given in patent US11485769B2, “Peptides and combination of peptides for use in immunotherapy and methods for generating scaffolds for the use against pancreatic cancer and other cancers” (Immatics Biotechnologies GmbH, priority 2015, dated 2022).

biological target: HLA-A*02:01 (Homo sapiens, UniProt P04439, D140Y/D185E/D98H/E176V/E277Q/G131W/G231S/I119V/I121R/I166T/I218V/L300P/L318F/N151K/N90K/P208A/P217A/Q86G/Q94H/R138H/R169H/T345S); experiment: MHC binding assay (UV-ligand exchange, beta2m ELISA, peptide exchange yield); conditions: binding to HLA-A*02:01 ranged by peptide exchange yield, β2m ELISA
From the text: Candidate peptides for T cell based therapies according to the present invention were further tested for their MHC binding capacity (affinity). The individual peptide-MHC complexes were produced by UV-ligand exchange, where a UV-sensitive peptide is cleaved upon UV-irradiation, and exchanged with the peptide of interest as analyzed. Only peptide candidates that can effectively bind and stabilize the peptide-receptive MHC molecules prevent dissociation of the MHC complexes. To determine the yield of the exchange reaction, an ELISA was performed based on the detection of the light chain (β2m) of stabilized MHC complexes. The assay was performed as generally described in Rodenko et al. (Rodenko et al., 2006).
96 well MAXISorp plates (NUNC) were coated over night with 2 ug/ml streptavidin in PBS at room temperature, washed 4× and blocked for 1 h at 37° C. in 2% BSA containing blocking buffer. Refolded HLA-A*02:01/MLA-001 monomers served as standards, covering the range of 15-500 ng/ml. Peptide-MHC monomers of the UV-exchange reaction were diluted 100 fold in blocking buffer. Samples were incubated for 1 h at 37° C., washed four times, incubated with 2 ug/ml HRP conjugated anti-μ2m for 1h at 37° C., washed again and detected with TMB solution that is stopped with […]. Absorption was measured at 450 nm. Candidate peptides that show a high exchange yield (preferably higher than 50%, most preferred higher than 75%) are generally preferred for a generation and production of antibodies or fragments thereof, and/or T cell receptors or fragments thereof, as they show sufficient avidity to the MHC molecules and prevent dissociation of the MHC complexes.
MHC class I binding scores. Binding of HLA-class I restricted peptides to HLA-A*02:01 was ranged by peptide exchange yield: ≥10%=+; ≥20%=++; ≥50=+++; >75%=++++

Substance	Peptide exchange (MHC class I binding score)
1 (FVDTRTLL; listed as Homo sapiens) [compound 1]	“++” (≥20%=++)
2 (FGYDGDFYRA; listed as Homo sapiens) [compound 2]	“+++” (≥50=+++)
3 (ILIGETIKI; listed as Homo sapiens) [compound 3]	“+++” (≥50=+++)
4 (ALDPAAQAFLL; listed as Homo sapiens) [compound 4]	“+++” (≥50=+++)
5 (ALLTGIISKA; listed as Homo sapiens) [compound 5]	“+++” (≥50=+++)
6 (ALTGIPLPLI; listed as Homo sapiens) [compound 6]	“+++” (≥50=+++)
7 (ALVDIVRSL; listed as Homo sapiens) [compound 7]	“+++” (≥50=+++)
8 (ALYTGSALDFV; listed as Homo sapiens) [compound 8]	“+++” (≥50=+++)
9 (QIIDAINKV; listed as Homo sapiens) [compound 9]	“++” (≥20%=++)
10 (VLLDKIKNL; listed as Homo sapiens) [compound 10]	“++” (≥20%=++)
11 (ALYYNPHLL; listed as Homo sapiens) [compound 11]	“++” (≥20%=++)
12 (AQYKFVYQV; listed as Homo sapiens) [compound 12]	“+++” (≥50=+++)
13 (FIDSSNPGL; listed as Homo sapiens) [compound 13]	“++” (≥20%=++)
14 (FIIDNPQDLKV; listed as Homo sapiens) [compound 14]	“+++” (≥50=+++)
15 (FILANEHNV; listed as Homo sapiens) [compound 15]	“+++” (≥50=+++)
16 (GLIDYDTGI; listed as Homo sapiens) [compound 16]	“+++” (≥50=+++)
17 (GLIDYDTGIRL; listed as Homo sapiens) [compound 17]	“+++” (≥50=+++)
18 (ALFVRLLAL; listed as Homo sapiens) [compound 18]	“++” (≥20%=++)
19 (ALWHDAENQTVV; listed as Homo sapiens) [compound 19]	“+++” (≥50=+++)
20 (GLIDIENPNRV; listed as Homo sapiens) [compound 20]	“+++” (≥50=+++)

Next, values leading:

Peptide exchange (MHC class I binding score)	Substance
“+++” (≥50=+++)	21 (GLVDGRDLVIV; listed as Homo sapiens) [compound 21]
“+++” (≥50=+++)	22 (ILSTEIFGV; listed as Homo sapiens) [compound 22]
“++” (≥20%=++)	23 (KLDSSGGAVQL; listed as Homo sapiens) [compound 23]
“++” (≥20%=++)	24 (KLSENAGIQSL; listed as Homo sapiens) [compound 24]
“++” (≥20%=++)	25 (LINPNIATV; listed as Homo sapiens) [compound 25]
“+++” (≥50=+++)	26 (SLYTALTEA; listed as Homo sapiens) [compound 26]
“+++” (≥50=+++)	27 (TLLAHPVTL; listed as Homo sapiens) [compound 27]
“+++” (≥50=+++)	28 (VLDEFYSSL; listed as Homo sapiens) [compound 28]
“++++” (>75%=++++)	29 (YILPFSEVL; listed as Homo sapiens) [compound 29]
“++” (≥20%=++)	30 (YIYKDTIQV; listed as Homo sapiens) [compound 30]
“+++” (≥50=+++)	31 (YLDSMYIML; listed as Homo sapiens) [compound 31]
